From patent publication US20060234285A1 (Human Genome Sciences, published 2006) come the findings set out here.

The target in assay [1] is T1, Soluble human FLAG-FasL (synthesized at HGS) (human, UniProt P48023 130-281, limits assumed).
T1 construct: called trimerized in the kinetic BIAcore run; cross-linked with FLAG antibody in the cell assays; also called FasL-Flag; trimerized FLAG-FasL
T1 sequence (looked up): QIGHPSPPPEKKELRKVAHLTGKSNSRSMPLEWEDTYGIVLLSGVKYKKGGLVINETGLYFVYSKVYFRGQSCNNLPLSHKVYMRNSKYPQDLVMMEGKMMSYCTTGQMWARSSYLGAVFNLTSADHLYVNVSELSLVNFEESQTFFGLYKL
Description: BIAcore, trimerized FLAG-FasL soluble. Background: In SPR one partner is held on a chip, and binding of the other changes the refractive index at the surface.

For assay [2], the target named is T1, Soluble human FLAG-FasL (synthesized at …). Description: cell-based or functional assay.
For assay [3], the target named is T2, Murine FasL on transfected murine L929 cells (murine, UniProt P41047 1-279).
T2 sequence (looked up): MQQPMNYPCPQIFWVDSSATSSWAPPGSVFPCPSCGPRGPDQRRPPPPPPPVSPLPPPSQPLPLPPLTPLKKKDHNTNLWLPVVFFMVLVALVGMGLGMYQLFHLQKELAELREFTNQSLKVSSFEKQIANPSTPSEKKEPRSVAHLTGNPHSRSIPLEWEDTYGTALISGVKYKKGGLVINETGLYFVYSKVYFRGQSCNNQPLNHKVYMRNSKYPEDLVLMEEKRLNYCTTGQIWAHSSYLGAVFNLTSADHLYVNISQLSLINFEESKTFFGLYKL
The assay is described as follows: cell-based or functional assay.

Assay [4] concerns the target T3, TNF-gamma-beta, full length, on transfected cells (human, UniProt O95150 1-251).
T3 construct: whole, on cells; also called TL1β
T3 sequence (looked up): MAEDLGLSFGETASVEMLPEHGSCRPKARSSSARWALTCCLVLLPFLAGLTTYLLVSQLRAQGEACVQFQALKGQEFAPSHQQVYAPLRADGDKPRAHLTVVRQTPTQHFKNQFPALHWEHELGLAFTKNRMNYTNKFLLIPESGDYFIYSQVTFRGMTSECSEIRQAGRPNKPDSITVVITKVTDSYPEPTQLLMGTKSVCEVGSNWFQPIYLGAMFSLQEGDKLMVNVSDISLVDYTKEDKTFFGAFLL
The assay is described as follows: flow cytometry on HEK293F cells expressing full length TNF-gamma-beta. Here is the method: One million cells, in 0.1 ml of FACS buffer (PBS, 0.1% BSA, 0.1% NaN₃), were incubated with 0.1-1 microgram of protein or antibody at RT for 15 min. The cells were washed with 3 ml of FACS buffer, reacted with biotinylated primary antibody, and stained with PE-conjugated secondary antibody at RT for 15 min. Cells were then washed again, resuspended in 0.5 microgram/ml of propidium iodide, and live cells were gated and analyzed on a FACScan using the CellQuest software (BD Biosciences).

For assay [5], the target named is T4, Human LIGHT, full length, on cells (stably transfected 293F cells; endogenous on activated human T cells) (human, UniProt O43557 1-240).
T4 construct: whole, on cells; also called LIGHT-transfectants; cell membrane LIGHT
T4 sequence (O43557 whole entry): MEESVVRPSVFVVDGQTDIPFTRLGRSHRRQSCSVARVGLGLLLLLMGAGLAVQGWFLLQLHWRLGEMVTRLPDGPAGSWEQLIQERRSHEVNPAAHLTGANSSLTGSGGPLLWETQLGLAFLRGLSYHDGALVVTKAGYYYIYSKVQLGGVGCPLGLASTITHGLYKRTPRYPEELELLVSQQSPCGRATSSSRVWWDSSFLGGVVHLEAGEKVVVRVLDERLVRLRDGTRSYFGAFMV
The assay is described as follows: flow cytometry on 293 cells overexpressing LIGHT. Here is the method:
This was tested on 293 cells overexpressing LIGHT according to flow cytometry.
Background: In flow cytometry, cells or beads pass a laser one at a time.

The target in assay [6] is T5, FLAG-tagged soluble form of TNF-gamma-beta (aa 72-251) (human, UniProt O95150 72-251).
T5 construct: also called FLAG-TL1β; FLAG-TNF-gamma-beta
T5 sequence (looked up): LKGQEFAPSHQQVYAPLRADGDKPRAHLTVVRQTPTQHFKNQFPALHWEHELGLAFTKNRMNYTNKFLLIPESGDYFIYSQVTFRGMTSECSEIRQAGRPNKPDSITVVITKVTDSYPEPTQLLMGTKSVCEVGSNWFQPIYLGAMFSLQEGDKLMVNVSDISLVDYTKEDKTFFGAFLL
Description: coimmunoprecipitation with protein A-Sepharose, anti-Flag western blot. An excerpt: The beads were then precipitated and washed extensively with PBST buffer (PBS, 0.5% Triton X-100) before boiled in SDS-sample buffer. Proteins were resolved on 4-20% Tris-Glycine gels (NOVEX), transferred to nitrocellulose membranes, and blotted with anti-Flag M2 monoclonal antibody (1 microgram/ml, Sigma) and horseradish peroxidase (HRP)-conjugated goat anti-mouse IgG antibody (0.5 microgram/ml).

B1: Human Fas(M1-G169)-Fc fusion protein (Fc fusion, UniProt P25445 26-169, looked up, not shown: a dimerising Fc or GST)
chain: QVTDINSKGLELRKTVTTVETQNLEGLHHDGQFCHKPCPPGERKARDCTVNGDEPDCVPCQEGKEYTDKAHFSSKCRRCRLCDEGHGLEVEINCTRTQNTKCRCKPNFFCNSTVCEHCDPCTKCEHGIIKECTLTSNTKCKEEG
notes: range 1-169; From CHO cells; a disulfide-linked dimer; also called Fas-Fc; FasFc
Regarding B1, the equilibrium dissociation constant (Kd) – broadly, the constant that tells how readily two partners part at equilibrium – in assay [1] was 7.4 nM. For the same molecule, in assay [2], the “cross-linked FLAG-FasL mediated HT-29 cell death; shift of the cytotoxicity curve” value was around 10 fold. Moreover, the “IC50 of inhibition of killing of A20 target cells by murine FasL-transfected L929 cells” value in assay [3] is around 0.1 µg/mL. The binding result in assay [4], in assay [5] and in assay [6] was “no binding” each time.
